Results reported in the supplement of paper PMC12764529.
± gives the half width of the 95% confidence interval.

What was measured:
[1] = folding stability dG unfold from trypsin proteolysis; higher = more stable
How it was run: (§1)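 K50 was inferred by Bayesian fitting of sequencing counts obtained after protease digestion of designed mini-proteins. Unfolding free energy was derived by comparison with a sequence-predicted unfolded-state K50 and a shared folded-state K50, for each protease or both combined. The mini-proteins were under 80 residues, had no cysteine, were carried in a PA-tagged cDNA display construct, and were kept only if AlphaFold2 dimer inter-PAE exceeded 15.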

[2] = folding stability dG unfold from chymotrypsin proteolysis; higher = more stable
How it was run: as §1

[3] = folding stability dG unfold (combined trypsin and chymotrypsin); higher = more stable
How it was run: as §1

Row | Sequence | folding stability dG unfold [1] [kcal/mol] | folding stability dG unfold [2] [kcal/mol] | folding stability dG unfold [3] [kcal/mol]
1 | SAGGMPVTLEIVLPNLHDVLGPEFFDALKNITVPNGTPIKKITVKPIGDKTVILIEVDSPEDAKDILGSAGG [r13_269_TrMRF] | 1.44 ± 0.12 | 1.66 ± 0.17 | 1.58 ± 0.15
2 | SAGGSAPPFYIAINPDKPKSIHIMPPGSPDMRDDDGSKVIPFRTEEEFLKLIQEIKKKGVDKIHIYSAGGSA [r15_1004_TrROS] | -0.0618 ± 0.18 | 0.744 ± 0.24 | 0.413 ± 0.24
3 | SAGGSASNIKTEEKEYPDGKVVVKYSSDPNITYVYYYPPGGLELVETLDSNGNVISKKLVPKGKLISAGGSA [r15_419_JUSTAS] | 0.607 ± 0.049 | 0.959 ± 0.097 | 0.832 ± 0.06
4 | SAGGEAEVVARAEVTLPDGVKVEVEVVRVDGKLVVRVRVEVRLPPPPPPPPPPLPPLSEEERKKLAEASAGG [r13_760_TrROS_Hall] | 2.09 ± 0.091 | 2.09 ± 0.16 | 2.18 ± 0.22
5 | SAGGVNPTDPAQATTTETTPSLVTLPNGEKVLVTTTTTTTPDGSTTTTTTTTNAATGATTSTTTTTASAGGS [r8_252_JUSTAS] | 1.97 ± 0.14 | 2.39 ± 0.14 | 2.19 ± 0.14
6 | SAGGSAMKITITVEKKEDGTYRVTIEIDGKKIEIEMSVEDLKKKLEELAKELFPDKPIKVEVKPVPSAGGSA [r15_925_TrROS_Hall] | 2.87 ± 0.13 | 4.13 ± 0.36 | 3.83 ± 0.2
7 | SAGGSAGGSAGMVTIYADPDGSYTAHFPDGSSASYSSLEEVKANLKAKYPDVKDVVIEKTSAGGSAGGSAGG [r11_806_JUSTAS] | 2.17 ± 0.088 | 3.449 ± 0.034 | 3.11 ± 0.084
8 | SAGGMPREVAKEMIENDKDAKVTFTIYRFPDGPVPSVTVEVIEADVKDPDAFLESVPEGWLVLVEPASAGGS [r16_116_TrMRF] | 0.245 ± 0.13 | 1.17 ± 0.11 | 0.769 ± 0.085
9 | SAGGSAGGSAGGSKIRLKINMTEEELKELLKKLFPNAKVTRIERKKDGSIYVEIELEPESAGGSAGGSAGGS [r4_95_TrROS_Hall] | 2.94 ± 0.11 | 3.23 ± 0.082 | 3.09 ± 0.11
10 | SAGGSAGGGSISIPGPGPVSATTDPVTKTLVTVTYPTSEVRIPIEGDKFTEAETTPLPPPPALTSAGGSAGG [r6_847_JUSTAS] | -0.16 ± 0.1 | 1.08 ± 0.036 | 0.708 ± 0.072
11 | SAGGSAGGSAGGSDNSITLDFFFNNYYIKITFNPWNGNLEIDEVQKVPPPPKPKDPGDKSAGGSAGGSAGGS [r4_21_TrROS] | 2.71 ± 0.13 | 3.19 ± 0.091 | 2.94 ± 0.22
12 | SASITIPVDELKDFAEHFPGFNVGVNPETGMFQIFFPENGWMINIDIEVDPDDPDTIEIDIEIYPMPPNSAG [r14_604_TrROS] | 1.78 ± 0.13 | 2.96 ± 0.15 | 2.57 ± 0.37
13 | SEPRYHVEIRLPVLLVVPPELLEPDPERDSYRLPEDDLPVHPDAVIPREVTFSGPMTAEEVVRRTLALLSSA [r9_165_TrMRF] | 0.455 ± 0.11 | 1.38 ± 0.13 | 1.04 ± 0.085
14 | SAGGGMKISTVETKPESDGSIVITIKVYDANGNEIKTYTIPLKGLSNVTITIPVANNPIEVSIPATLSSAGG [r13_427_JUSTAS] | 1.48 ± 0.037 | 2.05 ± 0.078 | 1.84 ± 0.13
15 | SAGSAEELKEKIREELRERLAKELGYPNIEIKKVEVLKYDPETGTITVKVELKLPDGKELTLTITVPVKSAG [r5_20_JUSTAS] | 4.27 ± 0.34 | 3.63 ± 0.29 | 3.9 ± 0.41
16 | SAGGSAGGSAGGMKVKAYIFENGKLKEIELSEEELKELLKKLPNARILIEVDGKKLELPASAGGSAGGSAGG [r7_188_TrROS_Hall] | 1.93 ± 0.083 | 3.79 ± 0.12 | 3.51 ± 0.2
17 | SAGGMMEIEVEIEKLEDGTYRIRIRVRLPNGEEVEKEMTFDRETGTLTITFDRPIEPDQIVEIEIEPSAGGS [r16_95_TrROS_Hall] | 3.94 ± 0.16 | 4.41 ± 0.2 | 4.27 ± 0.19
18 | SAGGSAGGSFKAPPGEKYVLKLRSPENGQEFMVEFTPDNIKISNPNDEKMPFPPDDITDVKDVSAGGSAGGS [r20_35_TrROS] | -0.612 ± 0.33 | 0.0465 ± 0.24 | -0.109 ± 0.17
19 | SAGGSAGGSAGGLEEIRENGEALVFYPDGRVYRVDLKTGKITPPPGFKPENIVRVVFVKKSAGGSAGGSAGG [r7_566_TrMRF] | 0.493 ± 0.1 | 0.0292 ± 0.14 | 0.301 ± 0.076
20 | SMLTITDENGNTITLPAAGEPVTLTVEIEVDGYTVTVEITFDADTKKITIKVEVTNPNGEKQTFTFTFDLSA [r9_1073_TrROS_Hall] | 2.92 ± 0.12 | 4.23 ± 0.083 | 3.84 ± 0.16
21 | SAGGSAGGSGMMTVELTETIVSETSVVTEKVPEKGEFIVEVLETSVSVVRRTLPLALYQALLESAGGSAGGS [r12_723_JUSTAS] | 0.866 ± 0.071 | 0.631 ± 0.097 | 0.789 ± 0.087
